According to patent US8969060B2, “Modified glucose dehydrogenase” (Ikeda Food Research Co., Ltd., priority 2011, dated 2015):
Substitutions are numbered along the chain they refer to. Names may count otherwise.

B1: F432L: modified GLD: SEQ ID NO: 1 with substitution F432L (protein, listed as Aspergillus terreus)
chain: MLGKLSFLSALSLAVAAPLSNSTSAKYDYIVIGGGTSGLAVANRLSEDPNVNVLILEAGGSVWNNPNVTNVDGYGLAFGSDIDWQYQSVNQPYGGNLSQVLRAGKALGGTSTINGMAYTRAEDVQIDAWETIGNTGWTWKNLFPYYRKSENFTVPTKSQTSLGASYEAGAHGHEGPLDVAFTQIESNNLTTYLNRTFQGMGLPWTEDVNGGKMRGFNLYPSTVNLEEYVREDAARAYYWPYKSRPNLHVLLNTFANRIVWDGEAHDGHITASGVEITSRNGTVRVINAEKEVIVSAGALKSPAILELSGIGNPSVLDKHNIPVKVNLPTVGENLQDQVNSHMDASGNTSISGTKAVSYPDVYDVFGDEAESVAKQIRANLKQYAADTAKANGNIMKAADLERLFEVQYDLIFKGRVPIAEVLNYPGSATSVLAEFWALLPFARGSVHIGSSNPAEFPVINPNYFMLDWDAKSYVAVAKYIRRSFESYPLSSIVKESTPGYDVIPRNASEQSWKEWVFDKNYRSNFHPVGTAAMMPREIGGVVDERLNVYGTTNVRVVDASVLPFQVCGHLVSTLYAVAERAADLIKADAGRR
modifications: SIGNAL (1)..(19)
B2: H341W: modified GLD: SEQ ID NO: 1 with substitution H341W (protein, listed as Aspergillus terreus)
chain: B1 chain with H341W, L432F
modifications: SIGNAL (1)..(19)

Assays:
Type in all cases: biochemical
[1] = Relative enzymatic activity of GLD (DCIP/1-m-PMS, plate reader, yeast culture supernatant) with 1,10-phenanthroline present; settings: for Relative Activity [%] 1,10-Phenanthroline: site-specific mutants, inhibitor final concentration 1 mM
Procedure, shortened: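 Inhibitor at 1 mM final substitutes for the methanol in the reagent, and the sample rate is expressed as % of the inhibitor-free blank. Rates come from ΔA600/min of DCIP with glucose and 1-m-PMS at pH 7.0, using supernatants of YPD-grown yeast clones (24 h, 30° C.).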

[2] = Relative enzymatic activity of GLD (DCIP/1-m-PMS, plate reader, yeast culture supernatant) with proflavin hydrochloride present; settings: site-specific mutants, inhibitor final concentration 1 mM
Procedure, shortened: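 Culture supernatant diluted and mixed with reagent of phosphate buffer pH 7.0, 1.0 M D-glucose, 3 mM DCIP, 3 mM 1-m-PMS and methanol (0.1:1:0.14:0.2:0.06). DCIP absorbance decrease at 600 nm followed; proflavin hydrochloride in methanol replaced methanol at 1 mM final. Activity expressed as % of inhibitor-free blank.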

[3] = Susceptibility of purified enzyme to 1,10-phenanthroline (spectrophotometer); settings: inhibitor 1 mM
Experimental: (§1) 1.0 mL of 0.1 M potassium phosphate buffer (pH 7.0), 1.0 mL of 1.0 M D-glucose, 0.14 mL of 3 mM 2,6-dichlorophenol indophenol (hereinafter referred to as DCIP), 0.2 mL of 3 mM 1-methoxy-5-methylphenazinium methylsulfate (hereinafter referred to as 1-m-PMS), 0.06 mL of methanol and 0.55 mL of distilled water are added to a 3-mL quartz cell (light path length: 1 cm), and the cell is placed in a spectrophotometer provided with a thermostat cell holder and incubated at 37° C. for 10 minutes. Thereafter, 0.05 mL of an enzyme solution is added to the cell, and then, a change in the absorbance of DCIP at 600 nm (ΔABS/min) is determined. The molar extinction coefficient of DCIP at pH 7.0 is taken as 16.3×10^3 cm^−1 M^−1, and enzymatic activity to reduce 1 μmol of DCIP per minute is substantially equivalent to 1 unit of the enzymatic activity. Therefore, the enzymatic activity is determined from the change in the absorbance according to Equation I. In Example 8, methanol was replaced with the same amount of distilled water.
(§2) In the following examples, a value of the enzymatic activity determined by the spectrometer or plate reader using the above reagent composition is considered as a blank value. On the other hand, a sample value is determined using a methanol solution comprising the inhibitor such as 1,10-phenanthroline or proflavin hydrochloride at a final concentration of 1 mM instead of the methanol. Enzymatic activity (unit/mL)=(−ΔABS/16.3)×3.0/0.05×(Dilution ratio of enzyme) [Equation 1]
(§3) The mutants having the mutation of H341W and F432L, respectively, were inoculated into a shake flask containing 150 mL the YPD medium. After shaking culture at 30° C. and 120 rpm for 48 hours, the culture mixture was centrifuged at 3,000×g for 5 min. and the supernatant was filtered through a membrane filter with 10 μm. […]
(§4) After diluting the purified enzyme to an appropriate concentration, the sample value and blank value were determined in accordance with the method for determination of the enzymatic activity using the spectrophotometer.

[4] = Susceptibility of purified enzyme to proflavin hydrochloride (spectrophotometer); settings: inhibitor 1 mM
Experimental: as §1, §2, §3, §4

[5] = Susceptibility to 1,10-phenanthroline at a high concentration
Experimental: as §1
The enzymatic activity is determined in the following manner in Examples 3 and 6 wherein a plate reader (Japan Molecular Device Corporation, SpectraMax Plus384) is used. Thus, culture supernatant that had been diluted in advance with an appropriate magnification is added to a 96-well microplate with an amount of 100 μl per well. A reagent for the determination of the enzymatic activity comprising phosphate buffer (pH 7.0), 1.0 M D-glucose, 3 mM DCIP, 3 mM 1-m-PMS and methanol with a volume ratio of 0.1:1:0.14:0.2:0.06 is added to the 96-well microplate with an amount of 100 μl per well, and a change in the absorbance of DCIP at 600 nm (ΔABS/min) is then determined. The enzymatic activity can be calculated by conversion in proportion to a change in the absorbance of an enzyme solution for which the enzymatic activity has already been known by the above-mentioned activity determination procedure using the spectrophotometer.
as §2
The relative activity was determined in the same manner as in Examples 3 and 6 in the co-existence of the inhibitors at a high concentration.

[6] = Susceptibility to proflavin at a high concentration; settings: final conc. 2 mM
Experimental: as §1, with “The molar extinction coefficient of DCIP at pH 7.0 is taken as 16.3×10^3 cm^−1 M^−1, and enzymatic activity to reduce 1 μmol of DCIP per minute is substantially equivalent to 1 unit of the enzymatic activity.” left out
The enzymatic activity is determined in the following manner in Examples 3 and 6 wherein a plate reader (Japan Molecular Device Corporation, SpectraMax Plus384) is used. […] A reagent for the determination of the enzymatic activity comprising phosphate buffer (pH 7.0), 1.0 M D-glucose, 3 mM DCIP, 3 mM 1-m-PMS and methanol with a volume ratio of 0.1:1:0.14:0.2:0.06 is added to the 96-well microplate with an amount of 100 μl per well, and a change in the absorbance of DCIP at 600 nm (ΔABS/min) is then determined. […]

| Molecule | Relative Activity ([1]; random-mutation mutants, sample value with inhibitor at 1 mM / blank value, inhibitor not named in Table 1) [%] | Relative Activity [%] 1,10-Phenanthroline [1] [%] | Relative Activity [%] Proflavin hydrochloride [2] [%] | Relative Activity [%] 1,10-Phenanthroline [3] [%] | Relative Activity [%] Proflavin hydrochloride [4] [%] | Relative Activity[%] ([5]; final conc. 1 mM) | Relative Activity[%] ([5]; final conc. 5 mM) | Relative Activity[%] ([5]; final conc. 10 mM) | Relative Activity[%] ([5]; final conc. 20 mM) | Relative Activity[%] [6] [%] |
| --- | --- | --- | --- | --- | --- | --- | --- | --- | --- | --- |
| B1 | 80.4 | 91.7 | 68.1 | 90.8 | 88.1 | 97.0 | 64.2 | 47.2 | 32.1 | 91.6 |
| B2 |  | 100.3 | 88.4 | 89.5 | 144.3 | 99.4 | 78.1 | 63.2 | 45.8 | 138.2 |
